T1: Cynomolgus DLL3 ECD with Myc-tag on N-terminus and His-tag on C-terminus (cynomolgus)
T1 construct: also called Myc-cynoDLL3-His; Cyno DLL3
T1 chain: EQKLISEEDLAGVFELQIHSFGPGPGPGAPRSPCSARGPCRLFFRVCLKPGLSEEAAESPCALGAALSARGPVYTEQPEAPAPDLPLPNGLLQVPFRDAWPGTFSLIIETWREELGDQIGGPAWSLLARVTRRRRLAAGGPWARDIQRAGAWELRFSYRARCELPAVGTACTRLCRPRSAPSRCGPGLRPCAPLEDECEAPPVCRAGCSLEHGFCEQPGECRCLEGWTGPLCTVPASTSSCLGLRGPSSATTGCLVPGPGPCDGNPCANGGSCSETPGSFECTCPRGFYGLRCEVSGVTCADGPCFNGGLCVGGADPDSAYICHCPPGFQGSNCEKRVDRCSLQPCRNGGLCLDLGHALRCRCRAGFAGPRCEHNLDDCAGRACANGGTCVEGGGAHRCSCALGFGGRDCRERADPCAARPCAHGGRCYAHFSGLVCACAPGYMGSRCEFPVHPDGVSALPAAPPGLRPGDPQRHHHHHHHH

T2: recombinant human DLL3 (human, UniProt Q9NYJ7 27-492)
T2 sequence: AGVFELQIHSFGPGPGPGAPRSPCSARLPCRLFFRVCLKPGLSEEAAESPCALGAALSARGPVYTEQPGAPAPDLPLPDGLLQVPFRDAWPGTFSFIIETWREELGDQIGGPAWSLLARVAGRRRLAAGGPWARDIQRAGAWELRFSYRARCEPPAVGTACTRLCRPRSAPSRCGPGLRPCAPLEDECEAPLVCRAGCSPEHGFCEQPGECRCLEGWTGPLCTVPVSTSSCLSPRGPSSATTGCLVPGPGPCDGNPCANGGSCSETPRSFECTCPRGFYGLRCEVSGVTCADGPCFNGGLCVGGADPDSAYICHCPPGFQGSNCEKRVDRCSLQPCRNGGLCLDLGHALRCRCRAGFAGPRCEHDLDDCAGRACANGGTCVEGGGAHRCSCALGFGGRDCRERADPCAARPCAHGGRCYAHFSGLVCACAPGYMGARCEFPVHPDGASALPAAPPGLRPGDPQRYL


How the values were obtained:
[1] = target: T1, Cynomolgus DLL3 ECD with Myc-tag on …; assay: SPR Biacore 8K, 37 C, pH 7.4; bispecific captured on anti-human Fc, DLL3 as analyte, 1:1 model
Protocol: (§1) Binding affinity of anti-DLL3 arm in the anti-DLL3/CD3 antibodies to human or cynomolgus DLL3 at pH 7.4 were assessed at 37 degrees C. using Biacore 8K instrument (GE Healthcare). Anti-human Fc (GE Healthcare) was immobilized onto all flow cells of a CM4 sensor chip using amine coupling kit (GE Healthcare). The bispecific antibodies were captured onto the anti-Fc sensor surfaces, and then recombinant human or cynomolgus DLL3 was injected over the flow cell. All antibodies and analytes were prepared in ACES pH 7.4 containing 20 mM ACES, 150 mM NaCl, 0.05% Tween 20, 0.005% NaN₃. Sensor surface was regenerated each cycle with 3M MgCl₂.

recombinant human DLL3 = target: T2, recombinant human DLL3; assay: as above
Protocol: as §1

[2] = target: recombinant human CD3eg protein (CD3 epsilon-gamma, heterodimer of CD3 epsilon and CD3 gamma) (human, UniProt P07766 23-126; P09693 23-116); assay: SPR Biacore 8K, 37 C, pH 7.4; bispecific captured on anti-human Fc, human CD3eg as analyte, 1:1 model
Protocol: as §1, with “of the anti-CD3” for “of anti-DLL3”, “arm of” for “arm in”, “anti-DLL3/CD3 bispecific” for “anti-DLL3/CD3”, “to CD3” for “to human or cynomolgus DLL3”, “7.4 was” for “7.4 were”, “human CD3eg proteins (CD3 epsilon-gamma, heterodimer of CD3 epsilon and CD3 gamma)” for “human or cynomolgus DLL3”

Sequence of recombinant human CD3eg protein (CD3 epsilon-gamma, heterodimer of CD3 epsilon and CD3 gamma) (P07766 23-126 limits assumed, chain 1 of 2): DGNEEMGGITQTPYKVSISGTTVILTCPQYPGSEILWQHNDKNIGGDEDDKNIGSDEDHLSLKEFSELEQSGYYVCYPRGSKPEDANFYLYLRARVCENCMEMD
Sequence of recombinant human CD3eg protein (CD3 epsilon-gamma, heterodimer of CD3 epsilon and CD3 gamma) (P09693 23-116 limits assumed, chain 2 of 2): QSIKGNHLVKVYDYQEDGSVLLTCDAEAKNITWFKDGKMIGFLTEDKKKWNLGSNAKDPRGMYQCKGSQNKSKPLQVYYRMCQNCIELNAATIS

Row | Binder | Kd [1] [nM] | koff [1] [s⁻¹] | kon [1] [M⁻¹ s⁻¹] | Kd (recombinant human DLL3) [nM] | koff (recombinant human DLL3) [s⁻¹] | kon (recombinant human DLL3) [M⁻¹ s⁻¹] | Kd [2] [nM] | koff [2] [s⁻¹] | kon [2] [M⁻¹ s⁻¹]
1 | D30316AE03/AN121 (bispecific antibody, V domains shown, IgG-type anti-DLL3/CD3 bispecific made by Fab arm exchange) VH 1: EVQLVESGGGLVQPGGSLRLSCAASGFTFSNYGVSWVRQAPGQGLEWMGYIDIAFGRTYYASWVTGRITINPDTSKNQFSLQLNSVTPEDTAVYYCARVALVVAGVAYYGMDVWGQGTLVTVSS VL 1: DIVMTQSPDSLAVSLGERATINCQASQNIYSYLSWYQQKPGKAPKLLIYRTSTLASGVPDRFSGSGSGTDFTLKISRVEAEDVGVYYCQSYYYSSGSSYGAFAFGQGTKVEIK VH 2: QVQLVESGGGLVQPGRSLRLSCAASGFTFSNAWMHWVRQAPGKGLEWVAQIKDRANSYNTYYAESVKGRFTISRDDSKNSIYLQMNSLKTEDTAVYYCRYVHYTTYAGSSFSYGVDAWGQGTTVTVSS VL 2: DIVMTQSPLSLPVTPGEPASISCRSSQPLVHSNRNTYLHWYQQKPGQAPRLLIYKVSNRFSGVPDRFSGSGSGTDFTLKISRVEAEDVGVYYCGQGTQVPYTFGQGTKLEIK | – | – | – | – | – | – | 7.55 | 0.000744 | 98600
2 | D30841AE08/TR01 (bispecific antibody, V domains shown, IgG-type anti-DLL3/CD3 bispecific made by Fab arm exchange) VH 1: QVTLRESGPALVKPTQTLTLTCTFSGFSLSSSYDMGWVRQAPGQGLEWMGTIYTGDYSTDYASWAKGRVTISVDTSKNQFSLKLSSVTAADTAVYYCARHTGYGYFGLWGQGTLVTVSS VL 1: DIQLTQSPSFLSASVGDRVTITCQSTESVYGSDWLSWYQQKPGQPPKLLIYQASNLEIGVPSRFSGSGSGTDFTLTINSLEAEDAATYYCQGYYSGYIYAFGGGTKVEIK VH 2: QVQLVESGGGVVQPGGSLRLSCAASGFTFSNAWMHWVRQAPGKGLEWVAQIKDKSQNYATYVAESVKGRFTISRADSKNSIYLQMNSLKTEDTAVYYCRYVHYAAGYGVDIWGQGTTVTVSS VL 2: DIVMTQSPLSLPVTPGEPASISCRSSQPLVHSNRNTYLHWYQQKPGQAPRLLIYKVSNRFSGVPDRFSGSGSGTDFTLKISRVEAEDVGVYYCGQGTQVPYTFGQGTKLEIK | 0.0737 | 0.000191 | 2.59e+06 | 0.0872 | 0.000215 | 2.47e+06 | – | – | –
3 | D30316AE03/AN104 (bispecific antibody, V domains shown, IgG-type anti-DLL3/CD3 bispecific made by Fab arm exchange) VH 1: EVQLVESGGGLVQPGGSLRLSCAASGFTFSNYGVSWVRQAPGQGLEWMGYIDIAFGRTYYASWVTGRITINPDTSKNQFSLQLNSVTPEDTAVYYCARVALVVAGVAYYGMDVWGQGTLVTVSS VL 1: DIVMTQSPDSLAVSLGERATINCQASQNIYSYLSWYQQKPGKAPKLLIYRTSTLASGVPDRFSGSGSGTDFTLKISRVEAEDVGVYYCQSYYYSSGSSYGAFAFGQGTKVEIK VH 2: QVQLVESGGGLVQPGRSLRLSCAASGFTFSNAWMHWVRQAPGKGLEWVAQIKDRQNGYNTYYAESVKGRFTISRDDSKNSIYLQMNSLKTEDTAVYYCRYVHYTTTYGSYYQFGVDAWGQGTTVTVSS VL 2: DIVMTQSPLSLPVTPGEPASISCRSSQPLVHSNRNTYLHWYQQKPGQAPRLLIYKVSNRFSGVPDRFSGSGSGTDFTLKISRVEAEDVGVYYCGQGTQVPYTFGQGTKLEIK | – | – | – | – | – | – | 37.3 | 0.00266 | 71400

The remaining lines, values ahead:

Row | Kd [1] [nM] | koff [1] [s⁻¹] | kon [1] [M⁻¹ s⁻¹] | Kd (recombinant human DLL3) [nM] | koff (recombinant human DLL3) [s⁻¹] | kon (recombinant human DLL3) [M⁻¹ s⁻¹] | Kd [2] [nM] | koff [2] [s⁻¹] | kon [2] [M⁻¹ s⁻¹] | Binder
4 | 0.0199 | 4.96e-05 | 2.49e+06 | 0.0353 | 8.72e-05 | 2.47e+06 | – | – | – | DLA0316/TR01 (bispecific antibody, V domains shown, IgG-type anti-DLL3/CD3 bispecific made by Fab arm exchange) VH 1: QEQLVESGGGLVQPGGSLKLSCKVSGFDFSNYGVSWVRQAPGKGLEWIGYIDPAFGRTYYASWVNGRFTISSHNAQNTLYLQLNSLTAADTATYFCVRVALVVAGVAYYGMDVWGPGTLVTVSS VL 1: ADVVMTQTPASVEAAVGGTVTINCQASQNIYSYLSWYQQKPGQPPKLLIYRTSTLASGVPSRFKGSGSGTQFTLTISDLECADAATYYCQSYYYSSGSSYGAFAFGGGTEVVVK VH 2: QVQLVESGGGVVQPGGSLRLSCAASGFTFSNAWMHWVRQAPGKGLEWVAQIKDKSQNYATYVAESVKGRFTISRADSKNSIYLQMNSLKTEDTAVYYCRYVHYAAGYGVDIWGQGTTVTVSS VL 2: DIVMTQSPLSLPVTPGEPASISCRSSQPLVHSNRNTYLHWYQQKPGQAPRLLIYKVSNRFSGVPDRFSGSGSGTDFTLKISRVEAEDVGVYYCGQGTQVPYTFGQGTKLEIK
5 | 0.0621 | 0.000238 | 3.83e+06 | 0.0639 | 0.000247 | 3.87e+06 | – | – | – | DLA0841/TR01 (bispecific antibody, V domains shown, IgG-type anti-DLL3/CD3 bispecific made by Fab arm exchange) VH 1: QEQLVESGGGLVQPEGSLTLTCTASGFSFSSSYDMCWVRQAPGKGPEWIACIYTGDGSTDYASWAKGRFTVSKASSTTVTLQMTSLAVADTATYFCARNSGYGYFGLWGPGTLVTVSS VL 1: QVLTQTPSPVSAAVGGTVTISCQSTESVYGSDWLSWYQQKPGQPPKVLIYQASNLEIGVPSRFKGSGSGTQFTLTISGAQCDDAATYYCQGYYSGYIYAFGGGTEVVVK VH 2: QVQLVESGGGVVQPGGSLRLSCAASGFTFSNAWMHWVRQAPGKGLEWVAQIKDKSQNYATYVAESVKGRFTISRADSKNSIYLQMNSLKTEDTAVYYCRYVHYAAGYGVDIWGQGTTVTVSS VL 2: DIVMTQSPLSLPVTPGEPASISCRSSQPLVHSNRNTYLHWYQQKPGQAPRLLIYKVSNRFSGVPDRFSGSGSGTDFTLKISRVEAEDVGVYYCGQGTQVPYTFGQGTKLEIK
6 | – | – | – | – | – | – | 30.7 | 0.00743 | 242000 | D30316AE03/AN395 (bispecific antibody, V domains shown, IgG-type anti-DLL3/CD3 bispecific made by Fab arm exchange) VH 1: EVQLVESGGGLVQPGGSLRLSCAASGFTFSNYGVSWVRQAPGQGLEWMGYIDIAFGRTYYASWVTGRITINPDTSKNQFSLQLNSVTPEDTAVYYCARVALVVAGVAYYGMDVWGQGTLVTVSS VL 1: DIVMTQSPDSLAVSLGERATINCQASQNIYSYLSWYQQKPGKAPKLLIYRTSTLASGVPDRFSGSGSGTDFTLKISRVEAEDVGVYYCQSYYYSSGSSYGAFAFGQGTKVEIK VH 2: QVQLVESGGGLVQPGRSLRLSCAASGFTFSNAWMHWVRQAPGKGLEWVAQIKDKANGYNAYYAPSVKGRFTISRDDSKNSIYLQMNSLKTEDTAVYYCRYVHYTTFGFGLSYGGVDAWGQGTTVTVSS VL 2: DIVMTQSPLSLPVTPGEPASISCRSSQPLVHSNRNTYLHWYQQKPGQAPRLLIYKVSNRFSGVPDRFSGSGSGTDFTLKISRVEAEDVGVYYCGQGTQVPYTFGQGTKLEIK
7 | – | – | – | – | – | – | 11 | 0.0016 | 145000 | D30316AE03/AN119 (bispecific antibody, V domains shown, IgG-type anti-DLL3/CD3 bispecific made by Fab arm exchange) VH 1: EVQLVESGGGLVQPGGSLRLSCAASGFTFSNYGVSWVRQAPGQGLEWMGYIDIAFGRTYYASWVTGRITINPDTSKNQFSLQLNSVTPEDTAVYYCARVALVVAGVAYYGMDVWGQGTLVTVSS VL 1: DIVMTQSPDSLAVSLGERATINCQASQNIYSYLSWYQQKPGKAPKLLIYRTSTLASGVPDRFSGSGSGTDFTLKISRVEAEDVGVYYCQSYYYSSGSSYGAFAFGQGTKVEIK VH 2: QVQLVESGGGLVQPGRSLRLSCAASGFTFSNAWMHWVRQAPGKGLEWVAQIKDKQNSYAAYYAESVKGRFTISRDDSKNSIYLQMNSLKTEDTAVYYCRYVHYTTYSGGFFSYGVDAWGQGTTVTVSS VL 2: DIVMTQSPLSLPVTPGEPASISCRSSQPLVHSNRNTYLHWYQQKPGQAPRLLIYKVSNRFSGVPDRFSGSGSGTDFTLKISRVEAEDVGVYYCGQGTQVPYTFGQGTKLEIK
8 | 0.142 | 0.000265 | 1.86e+06 | 0.172 | 0.000325 | 1.88e+06 | – | – | – | D30841AE11/TR01 (bispecific antibody, V domains shown, IgG-type anti-DLL3/CD3 bispecific made by Fab arm exchange) VH 1: QVTLRESGPALVKPTQTLTLTCTFSGFSLSSSYDMGWVRQAPGQGLEWMGTIYTGDYSTDYASWAKGRVTISVDTSKNQFSLKLSSVTAADTAVYYCARHTGYGYFGLWGQGTLVTVSS VL 1: DIQLTQSPSFLSASVGDRVTITCQSTESVYGSDWLSWYQQKPGQPPKLLIYQASNLEIGVPSRFSGSGSGTDFTLTINSLEAEDAATYYCQGYYSGYSYAFGGGTKVEIK VH 2: QVQLVESGGGVVQPGGSLRLSCAASGFTFSNAWMHWVRQAPGKGLEWVAQIKDKSQNYATYVAESVKGRFTISRADSKNSIYLQMNSLKTEDTAVYYCRYVHYAAGYGVDIWGQGTTVTVSS VL 2: DIVMTQSPLSLPVTPGEPASISCRSSQPLVHSNRNTYLHWYQQKPGQAPRLLIYKVSNRFSGVPDRFSGSGSGTDFTLKISRVEAEDVGVYYCGQGTQVPYTFGQGTKLEIK

From patent US20240150465A1 (Chugai, published 2024)
